Test [1] concerns the target temperature sensitive p53 (val135) mutant expressed in p53A cells (UniProt P02340). In words: cell-based or functional assay.
A further test has as its system mdm2 in p53A cells. Kind of test: Up-regulation of endogenous Mdm2 by indirect immunofluorescence. The test is classed as cell-based, rat. The settings on record: indirect immunofluorescence (FIG. 7). On the procedure: Cells were fixed in cold methanol prior to incubation with primary antibodies. Subsequent to several washes in PBS, cells were incubated with rhodamine-conjugated goat anti-mouse antibody or fluorescein-conjugated goat anti-rabbit antibody. Cells were then washed, mounted and analyzed by fluorescence microscopy using a Nikon FXA epifluorescence microscope.
The indicated amount of plasmid DNA was transfected by electroporation. After transfection, cells were incubated at 37.5° C. for 24 hours to recover, and were then shifted to 32° C. for 24 hours before analysis for viability by trypan blue staining and apoptotic morphology. […]
We next attempted to rescue p53A cells from apoptosis at the permissive temperature by ectopically expressing p300. Vector alone, wild-type p300 and a functional but truncated form of p300 with a deletion of E1A binding domain (Arany et al. 1994), were transiently transfected in p53A cells. p53-dependent apoptosis was examined at the permissive temperature 48 hours post-transfection. p53A cells transiently expressed the exogenous wild-type p300 and the E1A binding mutant form of p300, neither of which were detected in mock transfected cells. The up-regulation of mdm2 in p300 transfected cells was not detected by Western blot analysis above endogenous levels (FIG. 6) because the transfection efficiency was low in transient assays. […]

In the next test the test system is p53A cells. Kind of test: Apoptotic morphology of transfected cells by indirect immunofluorescence at the permissive temperature. The settings on record: 24 μg plasmid DNA, permissive temperature (FIG. 9). The test is classed as cell-based, rat.
Test [2] has as its system GAL-4 luciferase reporter construct in HeLa cells. In words: Transcriptional reporter assay (GAL-4 luciferase reporter). Format: cell-based. On the procedure: Transcriptional reporter assays were performed as described previously (Catron, et al., 1995). HeLa cells were plated onto 60 mm tissue culture dishes and grown to 50-75% confluency. The cells were then transfected with 2.5 μg of a GAL-4 luciferase reporter construct (kindly provided by Dr. C. Abate-Shen, Center for Advanced Biotechnology and Medicine, Piscataway, N.J.) along with 2.5 μg of both a pm1 vector (BtfS, BtfS-N552 or BtfS-C210) and a bcl-2 family gene (pCMV-E1B 19K, pcDNA3-Bcl-2, or pcDNA3-Flag-Bcl-xL). DNA concentrations were kept constant using appropriate empty vectors, either pm1 or pcDNA3. The cells were transfected using SuperFect (Qiagen, Valencia, Calif.) according to the manufacturer's specifications and harvested 24 hours post-transfection. Expression of mutant and wild-type BtfS proteins were verified by immunofluorescence using an antibody against the GAL-4 DNA-binding domain (Clontech, San Fransisco, Calif.). Luciferase activity was determined using the Luciferase Assay System (Promega Corp., Madison, Wis.) measured in a scintillation counter, and then normalized for protein concentrations measured by a Bradford assay. […]
To address these issues, BtfS was cloned into a mammalian expression vector (pm1) containing the GAL-4 DNA binding domain. Transcriptional activity was monitored using a reporter construct containing GAL-4 promoter sites. […]
On the technique in general: In a reporter assay the amount or activity of a reporter protein is the signal.

In test [1], “wild-type mdm2 (pCOC-X2 / pCMVβ-X2) (from UniProt P23804 1-489)” yielded a percentage of apoptotic cells (morphology, indirect immunofluorescence) among p53A cells expressing the protein of 10%.
“mutant mdm2 with deletion of the N-terminal p53-binding domain (pCOC-ΔXM / pCMVβ-ΔXM) (from UniProt P23804 102-489)” had a percentage of apoptotic cells (morphology, indirect immunofluorescence) among p53A cells expressing the protein in test [1] of 30%.
Regarding “mutant p300: Functional but truncated p300 with deletion of the E1A binding domain (pCMVβp300Δ30)”, in the test with mdm2 in p53A cells, the “transfected cells showing up-regulation of Mdm2” value is listed as 90%. Further, the “percentage of expressing cells with apoptotic morphology” value in the test with p53A cells amounted to 8%.
With “wild-type p300: Transcriptional coactivator p300, HA-tagged, expressed from pCMVβp300”, the “transfected cells showing up-regulation of Mdm2” value with mdm2 in p53A cells is on record as 90%. The “percentage of expressing cells with apoptotic morphology” value in the test with p53A cells came to 4%.

B1: ΔC210: Deletion mutant of BtfS, amino acids 1-210, cloned into pm1 (protein, UniProt Q9NYF8 1-210, looked up, fragment)
chain: MGRSNSRSHSSRSKSRSQSSSRSRSRSHSRKKRYSSRSRSRTYSRSRSRDRMYSRDYRRDYRNNRGMRRPYGYRGRGRGYYQGGGGRYHRGGYRPVWNRRHSRSPRRGRSRSRSPKRRSVSSQRSRSRSRRSYRSSRSPRSSSSRSSSPYSKSPVSKRRGSQEKQTKKAEGEPQEESPLKSKSQEEPKDTFEHDPSESIDEFNKSSATSG
modifications: BtfS isoform
notes: Deletion mutant of BtfS, amino acids 1-210, cloned into pm1
With B1, in test [2] (pm1 GAL-4 DNA-binding domain fusions (FIG. 27)), the “ability to repress transcription (in words)” value is “sufficient for repression and nearly as potent as full-length BtfS”.

B2: pm1-BtfS: BtfS fused to the GAL-4 DNA binding domain in mammalian expression vector pm1 (protein)
chain: MKLLSSIEQACDICRLKKLKCSKEKPKCAKCLKNNWECRYSPKTKRSPLTRAHLTEVESRLERLEQLFLLIFPREDLDMILKMDSLQDIKALLTGLFVQDNVNKDAVTDRLASVETDMPLTLRQHRISATSSSEESSNKGQRQLTVSMGRANSRSHSSRSKSRSQSSSRSRSRSHSRKKRYRSRSRTYSRSRSRDRMYSRDYRRDYRNNRGMRRPYGYRGRGRGYYQGGGGRYHRGGYRPVWNRRHSRSPRRGRSRSRSPKRRSVSSRSRSRSRRSYRSSRSPRSSSSRSSSPYSKSPVSKRRGSQEKQTKKAEGEPQEESPLKSKSQEEPKDTFEHDPSESIDEFNKSSATSGDIWPGLSAYDNSPRSPHSPSPIATPPSQSSSCSDAPMLSTVHSAKNTPSQHSHSIQHSPERSGSGSVGNGSSRYSPSQNSPIHHIPSRRSPAKTIAPQNAPRDESRGRSSFYPDGGDQETAKTGKFLKRFTDEESRVFLLDRGNTRDKEASKEKGSEKGRAEGEWEDQEALDYFSDKESGKQKFNDSEGDDTEETEDYRQFRKSVLADQGKSFATASHRNTEEEGLKYKSKVSLKGNRESDGFREEKNYKLKETGYVVERPSTTKDKHKEEDKNSERITVKKETQSPEQVKSEKLKDLFDYSPPLHKNLDAREKSTFREESPLRIKMIASDSHRPEVKLKMAPVPLDDSNRPASLTKDRLLASTLVHSVKKEQEFRSIFDHIKLPQASKSTSESFIQHIVSLVHHVKEQYFKSAAMTLNERFTSYQKATEEHSTRQKSPEIHRRIDISPSTLRKHTRLAGEERVFKEENQKGDKKLRCDSADLRHDIDRRRKERSKERGDSKGSRESSGSRKQEKTPKDYKEYKSYKDDSKHKREQDHSRSSSSSASPSSPSSREEKESKKEREEEFKTHHEMKEYSGFAGVSRPRGTFFRIRGRGRARGVFAGTNTGPNNSNTTFQKRPKEEEWDPEYTPKSKKYFLHDDRDDGVDYWAKRGRGRGTFQRGRGRFNFKKSGSSPKWTHDKYQGDGIVEDEEETMENNEEKKDRRKEEKE
For the molecule B2, the “decrease in transcription compared to empty pm1 vector control” value in test [2] (24 hours post-transfection (FIG. 27)) was ~10 fold.

(Values after patent publication US6890716B1, “Recombinant cell line and screening method for identifying agents which regulate apoptosis and tumor suppression” (Howard Hughes Medical Institute, priority 1998, dated 2005).)
